Reference: patent publication US20100003258A1

Tests used:
Assay in all cases: cell-based or functional assay
[1] = biological target: FDCP-FGFR3 IIIb and FDCP-FGFR3 IIIc cell lines
[2] = biological target: human FGFR3 IIIc on FDCP-1 cells (FDCP-FGFR3 IIIc #109) (human), P22607
[3] = biological target: human FGFR3 IIIb on FDCP-1 cells (FDCP-FGFR3 IIIb #122) (human), P22607
[4] = biological target: human FGFR3 IIIc G380R on FDCP-1 cells (FGFR3 IIIc G380R #1) (human), P22607
Chain of human FGFR3 IIIc G380R on FDCP-1 cells (FGFR3 IIIc G380R #1) (human), P22607 (P22607 23-806 G380R): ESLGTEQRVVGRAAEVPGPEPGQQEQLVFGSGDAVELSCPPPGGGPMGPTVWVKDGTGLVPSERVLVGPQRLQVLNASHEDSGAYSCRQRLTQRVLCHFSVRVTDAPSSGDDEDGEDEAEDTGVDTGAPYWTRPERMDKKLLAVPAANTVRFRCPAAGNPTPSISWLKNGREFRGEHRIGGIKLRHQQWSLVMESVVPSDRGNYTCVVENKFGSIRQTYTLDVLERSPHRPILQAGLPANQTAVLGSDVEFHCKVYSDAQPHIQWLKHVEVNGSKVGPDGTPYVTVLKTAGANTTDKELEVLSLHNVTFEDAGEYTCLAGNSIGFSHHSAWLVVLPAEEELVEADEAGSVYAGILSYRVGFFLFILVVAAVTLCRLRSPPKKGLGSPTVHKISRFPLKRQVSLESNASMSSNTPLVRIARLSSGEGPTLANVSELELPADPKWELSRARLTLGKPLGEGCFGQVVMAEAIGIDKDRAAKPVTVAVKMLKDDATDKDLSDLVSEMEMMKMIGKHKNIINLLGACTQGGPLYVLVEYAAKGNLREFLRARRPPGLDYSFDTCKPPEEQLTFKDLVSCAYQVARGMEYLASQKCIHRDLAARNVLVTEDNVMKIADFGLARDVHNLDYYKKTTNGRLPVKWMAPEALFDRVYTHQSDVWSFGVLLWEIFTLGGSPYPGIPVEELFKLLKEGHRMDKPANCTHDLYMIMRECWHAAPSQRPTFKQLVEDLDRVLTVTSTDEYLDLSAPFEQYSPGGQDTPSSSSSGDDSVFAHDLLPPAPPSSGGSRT

Chain of human FGFR3 IIIb on FDCP-1 cells (FDCP-FGFR3 IIIb #122) (human), P22607 (P22607 23-806): as the sequence (P22607 23-806 G380R) above, with R358G counted along it
Chain of human FGFR3 IIIc on FDCP-1 cells (FDCP-FGFR3 IIIc #109) (human), P22607 (P22607 23-806): as the sequence (P22607 23-806 G380R) above, with R358G counted along it

Binder	maximal inhibition of FGF1 induced proliferation of FDCP-FGFR3 cell lines [1] [%]	FDCP Proliferation IC50, FGFR3 IIIc [2] [nM]	FDCP Proliferation IC50, FGFR3 IIIb [3] [nM]	FDCP Proliferation IC50, FGFR3 IIIc G380R [4] [nM]
anti-FGFR3 monoclonal antibody 20B4 (antibody, mouse IgG1, kappa) heavy: EIQLQQSGPELVKPGASVKVSCKASGYSLTDYNMYWVKQSHGKSLEWIGYIDPYNGGTSYNQKFKGKATLTVDKSSSTAFMHLNSLTSEDSAVYYCARSLGPDFDYWGQGTTLTVSSAKTTPPSVYPLAPGSAAQTNSMVTLGCLVKGYFPEPVTVTWNSGSLSSGVHTFPAVLQSDLYTLSSSVTVPSSTWPSETVTCNVAHPASSTKVDKKIVPRDCGCKPCICTVPEVSSVFIFPPKPKDVLTITLTPKVTCVVVDISKDDPEVQFSWFVDDVEVHTAQTQPREEQFNSTFRSVSELPIMHQDWLNGKEFKCRVNSAAFPAPIEKTISKTKGRPKAPQVYTIPPPKEQMAKDKVSLTCMITDFFPEDITVEWQWNGQPAENYKNTQPIMDTDGSYFVYSKLNVQKSNWEAGNTFTCSVLHEGLHNHHTEKSLSHSPGK light: QIVLTQSPAIMSASPGEKVTMTCSASSSVNYMHWYQQKSGTSPKRWIYDTSKLASGVPARFSGSGSGTSYSLTISSMEAEDTATYYCQQWNSNPLTFGAGTKLELKRADAAPTVSIFPPSSEQLTSGGASVVCFLNNFYPKDINVKWKIDGSERQNGVLNSWTDQDSKDSTYSMSSTLTLTKDEYERHNSYTCEATHKTSTSPIVKSFNRNEC	40	102	1.51	–
anti-FGFR3 monoclonal antibody 15D8 (antibody, mouse IgG1, kappa) heavy: EIQLQQSGPELVKPGASVKVSCKASGYAFTSYNMYWVKQSHGKSLEWIGYIDPYNGGTSYNQKFKGKATLTVDKSSSTAYMHLNSLTSEDSAVYYCAREGGNYEAWFAYWGQGTLVTVSAAKTTPPSVYPLAPGSAAQTNSMVTLGCLVKGYFPEPVTVTWNSGSLSSGVHTFPAVLQSDLYTLSSSVTVPSSTWPSETVTCNVAHPASSTKVDKKIVPRDCGCKPCICTVPEVSSVFIFPPKPKDVLTITLTPKVTCVVVDISKDDPEVQFSWFVDDVEVHTAQTQPREEQFNSTFRSVSELPIMHQDWLNGKEFKCRVNSAAFPAPIEKTISKTKGRPKAPQVYTIPPPKEQMAKDKVSLTCMITDFFPEDITVEWQWNGQPAENYKNTQPIMDTDGSYFVYSKLNVQKSNWEAGNTFTCSVLHEGLHNHHTEKSLSHSPGK light: QIVLTQSPALMSASPGEKVTMTCSASSSVSYMYWYQQKPRSSPKPWIYLTSYLASGVPARFSGSGSGTSYSLTISSMEAEDAATYYCQQWSSYPLTFGAGTKLELKRADAAPTVSIFPPSSEQLTSGGASVVCFLNNFYPKDINVKWKIDGSERQNGVLNSWTDQDSKDSTYSMSSTLTLTKDEYERHNSYTCEATHKTSTSPIVKSFNRNEC	–	0.28	0.14	3.1
anti-FGFR3 monoclonal antibody 4E7 (antibody, mouse IgG1, kappa) heavy: EIQLQQSGPELVKPGASVKVSCKASGYAFTSYNMYWVKQSHGKSLEWIGYIDPYNGGTRYNQKFKGKATLTVDKSSSTAYMHLNSLTSEDSAVYYCAREGGNYEAWFAYWGQGTLVTVSAAKTTPPSVYPLAPGSAAQTNSMVTLGCLVKGYFPEPVTVTWNSGSLSSGVHTFPAVLQSDLYTLSSSVTVPSSTWPSETVTCNVAHPASSTKVDKKIVPRDCGCKPCICTVPEVSSVFIFPPKPKDVLTITLTPKVTCVVVDISKDDPEVQFSWFVDDVEVHTAQTQPREEQFNSTFRSVSELPIMHQDWLNGKEFKCRVNSAAFPAPIEKTISKTKGRPKAPQVYTIPPPKEQMAKDKVSLTCMITDFFPEDITVEWQWNGQPAENYKNTQPIMDTDGSYFVYSKLNVQKSNWEAGNTFTCSVLHEGLHNHHTEKSLSHSPGK light: QIVLTQSPALMSASPGEKVTMTCSASSSVSYMYWYQQKPRSSPKPWIYLTSNLASGVPARFSGSGSGTSYSLTISSMEAEDAATYYCQQWSSNPLTFGAGTKLELKRADAAPTVSIFPPSSEQLTSGGASVVCFLNNFYPKDINVKWKIDGSERQNGVLNSWTDQDSKDSTYSMSSTLTLTKDEYERHNSYTCEATHKTSTSPIVKSFNRNEC	–	0.62	0.9	3.5
anti-FGFR3 monoclonal antibody 2G4 (antibody, mouse IgG1, kappa) heavy: EIQLQQSGPELVKPGASVKVSCKASGYAFTSYNMYWVKQSHGKSLEWIGYIDPYNGGTRDNQKFKGKATLTVDKSSSTAYMHLNSLTSEDSAVYYCAREGGNYEAWFAYWGQGTLVTVSAAKTTPPSVYPLAPGSAAQTNSMVTLGCLVKGYFPEPVTVTWNSGSLSSGVHTFPAVLQSDLYTLSSSVTVPSSTWPSETVTCNVAHPASSTKVDKKIVPRDCGCKPCICTVPEVSSVFIFPPKPKDVLTITLTPKVTCVVVDISKDDPEVQFSWFVDDVEVHTAQTQPREEQFNSTFRSVSELPIMHQDWLNGKEFKCRVNSAAFPAPIEKTISKTKGRPKAPQVYTIPPPKEQMAKDKVSLTCMITDFFPEDITVEWQWNGQPAENYKNTQPIMDTDGSYFVYSKLNVQKSNWEAGNTFTCSVLHEGLHNHHTEKSLSHSPGK light: QIVLTQSPALMSASPGEKVTMTCSASSSVSYMYWYQQKPRSSPKPWIYLTSNLASGVPARFSGSGSGTSYSLTISSMEAEDAATYYCQQWSSNPLTFGAGTKLELKRADAAPTVSIFPPSSEQLTSGGASVVCFLNNFYPKDINVKWKIDGSERQNGVLNSWTDQDSKDSTYSMSSTLTLTKDEYERHNSYTCEATHKTSTSPIVKSFNRNEC	–	0.5	0.63	11.7
anti-FGFR3 monoclonal antibody 27H2 (antibody, mouse IgG1, kappa) heavy: EIQLQQSGPELVKPGASVKVSCKASGYAFTSYNMYWVKQSHGKSLEWIGYIDPYNGGTRYNQKFKGKATMTVDKSSSTAYMHLNSLTSEDSAVYYCAREGGNYEAWFAYWGQGTLVTVSAAKTTPPSVYPLAPGSAAQTNSMVTLGCLVKGYFPEPVTVTWNSGSLSSGVHTFPAVLQSDLYTLSSSVTVPSSTWPSETVTCNVAHPASSTKVDKKIVPRDCGCKPCICTVPEVSSVFIFPPKPKDVLTITLTPKVTCVVVDISKDDPEVQFSWFVDDVEVHTAQTQPREEQFNSTFRSVSELPIMHQDWLNGKEFKCRVNSAAFPAPIEKTISKTKGRPKAPQVYTIPPPKEQMAKDKVSLTCMITDFFPEDITVEWQWNGQPAENYKNTQPIMDTDGSYFVYSKLNVQKSNWEAGNTFTCSVLHEGLHNHHTEKSLSHSPGK light: QIVLTQSPALMSASPGEKVTMTCSASSSVSYMYWYQQKPRSSPKPWIYLTSNLASGVPARFSGSGSGTSYSLTISSMEAEDAATYYCQQWSSNPLTFGAGTKLELKRADAAPTVSIFPPSSEQLTSGGASVVCFLNNFYPKDINVKWKIDGSERQNGVLNSWTDQDSKDSTYSMSSTLTLTKDEYERHNSYTCEATHKTSTSPIVKSFNRNEC	–	0.59	0.56	8.8
